The text below walks through data of paper PMC7502549 (Journal of molecular biology, 2020).

This data set deals with the molecule itself. Description: AUC.

B1: Neurotrimin (NTM) extracellular domain, a.a. 36-311, with C-terminal linker and hexahistidine tag (domain or fragment, human, UniProt Q9P121 36-311, looked up)
chain: ATFPKAMDNVTVRQGESATLRCTIDNRVTRVAWLNRSTILYAGNDKWCLDPRVVLLSNTQTQYSIEIQNVDVYDEGPYTCSVQTDNHPKTSRVHLIVQVSPKIVEISSDISINEGNNISLTCIATGRPEPTVTWRHISPKAVGFVSEDEYLEIQGITREQSGDYECSASNDVAAPVVRRVKVTVNYPPYISEAKGTGVPVGQKGTLQCEASAVPSAEFQWYKDDKRLIEGKKGVKVENRPFLSKLIFFNVSEHDYGNYTCVASNKLGHTNASIMLF
modifications: N-linked glycosylation (extensive)
Take B1: the stoichiometry N (in general, the number of molecules, sites or subunits per partner or assembly) was 2.
